Results on 5 molecules are retold here after patent US10590397B2 (priority 2017, dated 2020).

Where a chain is given by its changes, count along the chain named. Names may count otherwise. “And” between values parts separate entries of the source, which are not always exact repeats. Identical values can stand only once. Like-named read-outs stand apart in the source and are kept apart here.

For data set [1] the following is noted: DON as substrate; Michlmayr, et al., 2015; cited from earlier work.
Data set [2] is classed as biochemical, Fusarium.
The format of data set [3] is biochemical, Fusarium. The source holds these as a separate data set.

B1: Os79 (protein, listed as Oryza sativa)
chain: MGSMSTPAASANGGQVLLLPFPAAQGHTNPMLQFGRRLAYHGLRPTLVTTRYVLSTTPPPGDPFRVAAISDGFDDASGMAALPDPGEYLRTLEAHGARTLAELLLSEARAGRPARVLVYDPHLPWARRVARAAGVATAAFLSQPCAVDLIYGEVCARRLALPVTPTDARGLYARGVLGVELGPDDVPPFVAAPELTPAFCEQSIEQFAGLEDDDDVLVNSFSDLEPKEAAYMESTWRAKTIGPSLPSFYLDDGRLRSNTAYGFNLFRSTVPCMEWLDKQPPRSVVLVSYGTVSTFDVAKLEELGNGLCNSGKPFLWVVRSNEEHKLSVQLRKKCEKRGLIVPFCPQLEVLAHKATGCFLSHCGWNSTLEAIVNGVPLVAMPHWADQPTISKYVESLWGMGVRVQLDKSGILQREEVERCIREVMDGDRKEDYRRNATRLMKKAKESMQEGGSSDKNIAEFAAKYSN
What is called Km is the substrate concentration at which the rate is half of its maximum. One may read the kcat as the number of substrate molecules converted per active site and unit of time at saturation. On to B1, for which, in data set [1], the Km is 230 µM and the kcat was 0.57 s⁻¹.

B2: Os79 A384S (protein, listed as Oryza sativa)
chain: B1 chain with A384S
Regarding B2, the “KM value compared to WT Os79” value in data set [2] is “similar”.

B3: Os79 H122A/L123G (protein, listed as Oryza sativa)
chain: B1 chain with H122A, L123G
Consider B3, for which the Km in data set [2] (23° C.) was 2500 µM and 2510 µM; in data set [3], 512 µM.

B4: Os79 Q202A (protein, listed as Oryza sativa)
chain: B1 chain with Q202A
For the molecule B4, in data set [2], the “KM value compared to WT Os79” value is “no significant difference”.

B5: Os79 H122A/L123A (protein, listed as Oryza sativa)
chain: B1 chain with H122A, L123A
Turning to B5, the Michaelis-Menten constant (Km) in data set [3] worked out at 926 µM. Also, in data set [3] (23° C.), the kcat came to 1.6 s⁻¹.
